System: MS2 coat protein
Test: apparent KD of MS2 coat protein; designed switch direction (-1 OFF switch, 1 ON switch): -1; higher = weaker reporter binding
Procedure, shortened: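 Designed RNA switches with common flanks were made on Illumina chips by stalled E. coli RNA polymerase. Titration with SNAP-549-labelled MS2 coat protein doubled from 0.7 or 1.5 nM up to 3 µM. Apparent KD is each design's median over clusters after curve-fitting normalised fluorescence.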

[1] = Eterna round: R95, input ligand: microRNA oligo, concentration not stated
[2] = input ligand: microRNA oligo, concentration not stated
[3] = Eterna round: R95, input ligand: FMN 200 uM
[4] = Eterna round: R95, input ligand: none

**Q.** For “CUUUCGUGAGGAUAUCAGUAGUAAAAAUAUAAAAUUACUACUGAGAAGGCACAUGAGGAUCACCCAUGUUCCUC [salish99_ex3_r3_100] (puzzle: Exclusion 4)”, which “apparent KD of MS2 coat protein” value [1] is on record?
**A.** Its value is 0.0241 µM.

**Q.** With “GUUAACGCAGGAUAUUAGUACAUGUACAUGAGGAUCACCCAUGUUUAGUGGGUCUAGGAAUAAGAAGGGCGAUGAA [JR_Ex5_Sub007] (Eterna round: R97, puzzle: Exclusion 5)” as the sequence, how does the “apparent KD of MS2 coat protein” value (input ligand: FMN 200 uM) read?
**A.** The value was 0.28 µM.

**Q.** What about the “apparent KD of MS2 coat protein” value (input ligand: none) of the same sequence?
**A.** The value was 0.535 µM.

**Q.** How did the “apparent KD of MS2 coat protein” value [1] turn out when “CCGGAUAUGCAGGAUAUCGUAUCGGAUACGAUACGAGAAGGGUAUACAUGAGGAUCACCCAUGUGCCUUACCGG [Mat - Exclusion 6 - Eli Mod - D83] (puzzle: Exclusion 6)” was run?
**A.** Its value is 0.018 µM.

**Q.** How did the “apparent KD of MS2 coat protein” value (input ligand: FMN 200 uM) turn out when “UACAUGAGGAUCACCCAUGUUUUGUCGUGUAUGGUAUUUAUCUAGGAUAUCAAUGUAUGUAUUUAUGAGAAGGAGAAUAUUAAU [JMF's solution 43] (Eterna round: R96, puzzle: Exclusion NG 3)” was run?
**A.** Its value is 0.0472 µM.

**Q.** What about the “apparent KD of MS2 coat protein” value [2] of the same sequence?
**A.** The value was 0.0274 µM.

**Q.** And the “apparent KD of MS2 coat protein” value (input ligand: none)?
**A.** The value was 0.0409 µM.

**Q.** “GUGUACUGAGGAUAUGCUGGAAUCUAGCGAAGCUAGGUUCCACAUGAGGAUCACCCAUGUAGAAGGCGGUACAC [Dot plot directed A v6] (puzzle: Exclusion 2)” was tested. Which “apparent KD of MS2 coat protein” value [1] did it give?
**A.** Its value is 0.0291 µM.

**Q.** For “GACUUCUGAGGAUAUACAUAGAUUUACAUGAGGAUCACCCAUGUUCCUCUAUGUAUAAAUGUAGAAGGCAGAAGAU [Mat - Exclusion 5 - JL Mod - D66] (Eterna round: R97, puzzle: Exclusion 5)”, which “apparent KD of MS2 coat protein” value (input ligand: FMN 200 uM) is on record?
**A.** Its value is 0.0738 µM.

**Q.** What about the “apparent KD of MS2 coat protein” value (input ligand: none) of the same sequence?
**A.** Its value is 0.0132 µM.

**Q.** For “UUUUUGUCAGGAUAUGCAUGUUUUUUUUUUUUUUUUUUCAUGCAGAAGGGACAUGAGGAUCACCCAUGUAGUUU [Ex4 - 3 - 10] (Eterna round: R96, puzzle: Exclusion 4)”, which “apparent KD of MS2 coat protein” value (input ligand: FMN 200 uM) is on record?
**A.** The value was 0.0537 µM.

**Q.** What about the “apparent KD of MS2 coat protein” value [2] of the same sequence?
**A.** Its value is 0.0617 µM.

**Q.** What about the “apparent KD of MS2 coat protein” value (input ligand: none) of the same sequence?
**A.** Its value is 0.0632 µM.

**Q.** For “GCAGGUUAAGUCAGGAUAUACCUAUGGAUACAUAGGUAGAAGGGACAUGAGGAUCACCCAUGUUCCUCACCUGC [Fiskers BMX 4 - 21] (puzzle: Brourd's mod of Exclusion 4)”, which “apparent KD of MS2 coat protein” value [1] is on record?
**A.** Its value is 0.0139 µM.

**Q.** “GCUUGCUUUUUGGUUUUCAACAUGAGGAUCACCCAUGUUCGUCUUGUGCCCGGGCCCGGGCGGUGCCCGGGCCCGGG [A 9%] (Eterna round: R97, puzzle: Sensor, turn-off variant 1)” was tested. Which “apparent KD of MS2 coat protein” value (input ligand: FMN 200 uM) did it give?
**A.** Its value is 0.0179 µM.

**Q.** And the “apparent KD of MS2 coat protein” value (input ligand: none)?
**A.** The value was 0.0178 µM.

**Q.** Which “apparent KD of MS2 coat protein” value [3] does the source give for “AAGAAACAUGAGGAUCACCCAUGUGAGGAUAUGACAAAGAAAAGAAAAGAAAGAAGAAUCAGAAGGCACAAAGG [salish99-ex1_r3_033] (puzzle: Exclusion 1)” here?
**A.** Its value is 0.121 µM.

**Q.** And the “apparent KD of MS2 coat protein” value [1]?
**A.** Its value is 0.0831 µM.

**Q.** What about the “apparent KD of MS2 coat protein” value [4] of the same sequence?
**A.** Its value is 0.0966 µM.

**Q.** Which “apparent KD of MS2 coat protein” value (input ligand: FMN 200 uM) does the source give for “AAUGUGUGAGGAUAUUAAUUGCAAGCGAAUAGGCUUGUGAUUGAGAAGGCACAUGAGGAUCACCCAUGUUCCAA [JR_Ex4_Sub083] (Eterna round: R97, puzzle: Exclusion 4)” here?
**A.** Its value is 0.557 µM.

**Q.** What about the “apparent KD of MS2 coat protein” value (input ligand: none) of the same sequence?
**A.** Its value is 0.0386 µM.

**Q.** What does the source list for “UACCGGCGGACCGAGGCUUUUUGCUCGUCUUAUACUACAACAUGAGGAUCACCCAUGUGGUGGUGGUCCGUUGUAGU [JL ViennaUCT Bitein mod 5] (puzzle: Sensor v3, turn-off variant 2)”?
**A.** apparent KD of MS2 coat protein [3]: 0.0217 µM; apparent KD of MS2 coat protein [1]: 0.00609 µM; apparent KD of MS2 coat protein [4]: 0.0162 µM

**Q.** Which “apparent KD of MS2 coat protein” value (input ligand: FMN 200 uM) does the source give for “AUCAGCUCGUGAGGAUAUAUAUAUACAUGAGGAUCACCCAUGUUAGAUCAGCUUCGGCAGUAUAUAUAGAAGGCACGAGCUGAU [ENG2/15-A2] (Eterna round: R96, puzzle: Exclusion NG 2)” here?
**A.** The value was 0.233 µM.

**Q.** And the “apparent KD of MS2 coat protein” value [2]?
**A.** The value was 0.0906 µM.

**Q.** What about the “apparent KD of MS2 coat protein” value (input ligand: none) of the same sequence?
**A.** The value was 0.0796 µM.

**Q.** Which “apparent KD of MS2 coat protein” value (input ligand: FMN 200 uM) does the source give for “AAACGGGUGUCCUCGUUUUCAACAUGAGGAUCACCCAUGUUCGAGGAUAUCCAAUAAGCUCUUCAGGAGAAGGCGAACAUAAAA [Anenence] (Eterna round: R96, puzzle: Exclusion NG 3)” here?
**A.** Its value is 0.0201 µM.

**Q.** And the “apparent KD of MS2 coat protein” value [2]?
**A.** Its value is 0.0133 µM.

**Q.** What about the “apparent KD of MS2 coat protein” value (input ligand: none) of the same sequence?
**A.** Its value is 0.0157 µM.

**Q.** “GAGAAGGUAGGAUAUACGAAGAAAGAGGGUAGGAAUAAGACACAUGAGGAUCACCCAUGUAGAAGGACCAAGAG [Mat - Exclusion 2 - Mod of my Tesla design - D49] (puzzle: Exclusion 2)” was tested. Which “apparent KD of MS2 coat protein” value [3] did it give?
**A.** Its value is 0.0324 µM.

**Q.** And the “apparent KD of MS2 coat protein” value [1]?
**A.** Its value is 0.0212 µM.

**Q.** And the “apparent KD of MS2 coat protein” value [4]?
**A.** Its value is 0.0229 µM.

**Q.** How did the “apparent KD of MS2 coat protein” value (input ligand: FMN 200 uM) turn out when “CUUAUGGUCCAUACCUAGAACAUGAGGAUCACCCAUGUAAUACAUGACACCUACCUUAAGCACAGCUCGUCUUGUAG [Eternabot (Original) Solution 30] (Eterna round: R97, puzzle: Sensor, turn-off variant 1)” was run?
**A.** Its value is 0.0489 µM.

**Q.** And the “apparent KD of MS2 coat protein” value (input ligand: none)?
**A.** Its value is 0.057 µM.

**Q.** Which “apparent KD of MS2 coat protein” value (input ligand: FMN 200 uM) does the source give for “GUGCCGCGAGGAUAUACAGACGGGUCCAGGGCGUGUCUCGGACUUGAGGAUCACCCAAGUAGAAGGCGUCUCAG [salish99_ex2_r4_615] (Eterna round: R97, puzzle: Exclusion 2)” here?
**A.** The value was 0.0776 µM.

**Q.** And the “apparent KD of MS2 coat protein” value (input ligand: none)?
**A.** Its value is 0.0267 µM.

**Q.** For “UCGGCGCGAGGAUAUGCGGUUCCUUCUUCGGGCCGGAGCGUACAUGAGGAUCACCCAUGUAGAAGGCGCGCCGC [Apr-15 SS2-37] (puzzle: Exclusion 2)”, which “apparent KD of MS2 coat protein” value [1] is on record?
**A.** Its value is 0.0126 µM.

**Q.** For “GAUUAUGCGAGCUUUAGGGACAUGAGGAUCACCCAUGUUCGUCUUGUUGAUCUAGGUACACUGACAUACCUAAAUCU [JMF 65] (puzzle: Sensor v3, turn-off variant 1)”, which “apparent KD of MS2 coat protein” value [3] is on record?
**A.** Its value is 0.022 µM.

**Q.** And the “apparent KD of MS2 coat protein” value [1]?
**A.** Its value is 0.0269 µM.

**Q.** And the “apparent KD of MS2 coat protein” value [4]?
**A.** Its value is 0.0183 µM.

**Q.** How did the “apparent KD of MS2 coat protein” value (input ligand: FMN 200 uM) turn out when “UUCACAUGGACAUAAGAUCACAUGAGGAUCACCCAUGUGAAUAACAAGCUUUUUGUUCGUCUUAUGUCCAAUAAUAU [Stov1/14-B3] (Eterna round: R97, puzzle: Sensor, turn-off variant 1)” was run?
**A.** The value was 0.0139 µM.

**Q.** And the “apparent KD of MS2 coat protein” value (input ligand: none)?
**A.** Its value is 0.0122 µM.

**Q.** “AGUACUAACACGAAAGUGUUGGUACAAUAAGCUUGUGAAACAUGAGGAUCACCCAUGUCCUCAUAAGCUCGUCUUAU [salish99_TOv2_r3_036] (puzzle: Sensor v3, turn-off variant 2)” was tested. Which “apparent KD of MS2 coat protein” value [3] did it give?
**A.** The value was 0.0179 µM.

**Q.** What about the “apparent KD of MS2 coat protein” value [1] of the same sequence?
**A.** Its value is 0.599 µM.

**Q.** What about the “apparent KD of MS2 coat protein” value [4] of the same sequence?
**A.** The value was 0.0167 µM.

**Q.** What does the source list for “CCAGCGUAUGUUAGGAUAUGCUGGUCGAAAGAUCAGCAGAAGGAACAUGAGGAUCACCCAUGUGGAAAAGUUGG [Mod of JL 25 - Jieux - Brourd's mod of Exclusion 4] (Eterna round: R97, puzzle: Brourd's mod of Exclusion 4)”?
**A.** apparent KD of MS2 coat protein (input ligand: FMN 200 uM): 0.184 µM; apparent KD of MS2 coat protein (input ligand: none): 0.0304 µM

**Q.** “UAGUUAGCGUGUGGCACAUACAUGAGGAUCACCCAUGUUAGCUUAUAUAUUGCUCGUCUUAUAACAACACUUAACUU [Mod JX-Electric-eye6] (Eterna round: R97, puzzle: Sensor, turn-off variant 1)” was tested. Which “apparent KD of MS2 coat protein” value (input ligand: FMN 200 uM) did it give?
**A.** The value was 0.0187 µM.

**Q.** What about the “apparent KD of MS2 coat protein” value (input ligand: none) of the same sequence?
**A.** The value was 0.019 µM.

Source: the supplement of paper PMC9170038
